{"source": "paper PMC5454378", "about": "“Histone deacetylase 10 structure and molecular function as a polyamine deacetylase” (Nature Communications, 2017)", "proteins": {"B1": {"name": "zHDAC10 (Danio rerio) (protein)", "chain": "ASGSALIFDEEMSRYKLLWTDPACEIEVPERLTVSYEALRTHGLAQRCKAVPVRQATEQEILLAHSEEYLEAVKQTPGMNVEELMAFSKKYNDVYFHQNIYHCAKLAAGATLQLVDSVMKREVRNGMALVRPPGHHSQRSAANGFCVFNNVAIAALYAKKNYNLNRILIVDWDVHHGQGIQYCFEEDPSVLYFSWHRYEHQSFWPNLPESDYSSVGKGKGSGFNINLPWNKVGMTNSDYLAAFFHVLLPVAYEFDPELVIVSAGFDSAIGDPEGEMCALPEIFAHLTHLLMPLAAGKMCVVLEGGYNLTSLGQSVCQTVHSLLGDPTPRISGLGTACDSALESIQNVRNVQSSYWSSFKHLAQSETNPKRPRLDATNGGPKESSEPASESNPKKTAQDIVWPEPLKRMPASVRTVVVPPPGVELTLPKNCQHSGDISESTAKEVQRIRDKHFHDLTDQNILRSLGNIISVLDRMMRSDEVCNGCVVVSDLSVSVQCALQHALTEPAERVLVVYVGDGELPVKTNDGKVFLVQICTKETEDKCVNRLSLCLREGESLTAGFMQALLGLILPVAYEFNPALVLGIVGETAAKTGLMTVWGHMTCLIQGLARGRTLTLLQGYDKDLLELTVSALSGASISPLGPLRALKPEDVEMMEKQRQRLQERWGLLRCTVSES", "notes": "full-length, residues 2–675"}}, "assay_in_all_cases": "purified protein, by the assay type", "key": {"[1]": {"substrate": "CC(=O)NCCCCN", "set-up": "steady-state kinetics of acetylpolyamine deacetylation, discontinuous LC-MS after dansyl chloride derivatization", "settings": "50.0 °C", "method": "(§1) To study steady-state kinetics with non-fluorogenic peptide substrates and acetylpolyamines, a discontinuous LC–MS was employed based on the protocol of assaying nonfluorogenic acetyllysine peptide substrates for HDAC6 (ref. [17]). Assays were performed in triplicate. Briefly, 5 μl of enzyme (0.050–20 μM) in HEPES buffer (20 mM HEPES (pH 7.5), 100 mM NaCl, 5 mM KCl, 1 mM MgCl2) was added to 35 μl of substrate solution to initiate the reaction. After incubation for 15–60 min at room temperature, the reaction was quenched by addition of 50 μl of 20 mM dansyl chloride dissolved in acetonitrile followed by 10 μl of NaHCO3 (1.6 M, pH 10.0). The deacetylation products were derivatized with dansyl chloride at 50 °C for 2 hrs. The deacetylation products were detected by LC–MS using a Waters SQD equipped with an Acquity UPLC (Waters, Milford, MA, USA) and quantified by using the standard curves generated from the mass signals of the corresponding deacetylated polyamines and peptides. Inhibition of HDAC10 activity was measured by using 0.49 μM zHDAC10 with 192 μM N^8-acetylspermidine. Data were analysed by logistic regression for IC50 determination and the inhibition constant Ki was calculated based on the Cheng-Prusoff equation, Ki=IC50 / (1+[S]/KM)[45]. Assays were performed in triplicate at room temperature. We next tested the PDAC activity of hHDAC10 and zHDAC10 against several polyamine substrates using the LC–MS assay (Fig. 2, Supplementary Fig. 3 and Supplementary Table 1). […] For hHDAC10 and zHDAC10, kcat/KM=2,900±200 and 4,600±300 M^−1 s^−1, respectively; in comparison, N^1-acetylspermidine was a poor substrate with kcat/KM=24±5 and 7±2 M^−1 s^−1, respectively. Substrate specificity trends observed for zHDAC10 and hHDAC10 matched those of the previously reported mammalian N^8-acetylspermidine deacetylase activity. […] As a negative control, we examined the N^8-acetylspermidine deacetylase activity of human and zebrafish HDAC6 (ref. [17]). HDAC6 preferentially catalyses the deacetylation of the peptide substrate RGK(ac)-AMC with a catalytic efficiency >100-fold greater than that for the deacetylation of N^8-acetylspermidine. Therefore, HDAC6 is clearly an acetyllysine deacetylase and HDAC10 is an N^8-acetylspermidine deacetylase. It is notable that the molecular function of HDAC10 coincides with the cellular function of the cytosolic PDAC indicated in Fig. 1a."}, "[2]": {"substrate": "CC(=O)NCCCCCCCCN", "set-up": "steady-state kinetics of acetylpolyamine deacetylation, discontinuous LC-MS after dansyl chloride derivatization", "settings": "50.0 °C", "method": "as §1"}, "[3]": {"substrate": "CC(=O)NCCCCNCCCNC(C)=O", "set-up": "steady-state kinetics of acetylpolyamine deacetylation, discontinuous LC-MS after dansyl chloride derivatization", "settings": "50.0 °C", "method": "as §1"}, "[4]": {"substrate": "CC(=O)NCCCCCN", "set-up": "steady-state kinetics of acetylpolyamine deacetylation, discontinuous LC-MS after dansyl chloride derivatization", "settings": "50.0 °C", "method": "as §1"}, "[5]": {"substrate": "CC(=O)NCCCCNCCCN", "set-up": "steady-state kinetics of acetylpolyamine deacetylation, discontinuous LC-MS after dansyl chloride derivatization", "settings": "50.0 °C", "method": "as §1"}, "[6]": {"substrate": "CCCCNC(C)=O", "set-up": "steady-state kinetics of acetylpolyamine deacetylation, discontinuous LC-MS after dansyl chloride derivatization", "settings": "50.0 °C", "method": "as §1"}, "[7]": {"substrate": "CC(=O)NCCCC[C@H](NC(=O)[C@H](C)NC(=O)CNC(C)=O)C(=O)Nc1ccc2c(C)cc(=O)oc2c1", "set-up": "fluorogenic AMC-conjugated acetyllysine peptide deacetylation, steady-state kinetics", "text": "To determine steady-state kinetic parameters for the hydrolysis of a variety of acetylpolyamine and acetyllysine substrates, we prepared full-length recombinant HDAC10 from human (H. sapiens, hHDAC10) and zebrafish (D. rerio, zHDAC10). The CDs of these orthologues are highly similar based on 63%/79% sequence identity/similarity; only full-length constructs yielded soluble proteins. We first assayed the lysine deacetylase activity of these constructs against two commercially available aminomethylcoumarin (AMC)-conjugated fluorogenic acetyllysine peptides, GAK(ac)-AMC and RGK(ac)-AMC (molecular structures of all substrates are shown in Supplementary Fig. 2). […] These measurements were consistent with earlier studies reporting that HDAC10 activity was not measurable using fluorogenic peptide substrates. We also tested activity with 11 non-fluorogenic acetyllysine substrates using a […] chromatography–mass spectrometry (LC–MS)-based discontinuous assay[17] to avoid potential steric clashes that might occur with the bulky AMC group. These substrates included K(ac)NL and GAK(ac)NLQ, which mimic the peptide segment containing K73 in the proposed HDAC10 substrate MutS homologue 2 (MSH2)[22]. Again, we observed no or very low catalytic activity (Fig. 2 and Supplementary Table 1). In comparison with its closest relative, the cytosolic isozyme HDAC6 (ref. [17]), HDAC10 was clearly not an efficient lysine deacetylase."}, "[8]": {"substrate": "CC(=O)NCCCC[C@H](NC(C)=O)C(N)=O", "set-up": "discontinuous LC-MS deacetylation assay, dansylated product quantified, steady-state kinetics", "settings": "50.0 °C", "method": "To study steady-state kinetics with non-fluorogenic peptide substrates and acetylpolyamines, a discontinuous LC–MS was employed based on the protocol of assaying nonfluorogenic acetyllysine peptide substrates for HDAC6 (ref. [17]). Assays were performed in triplicate. Briefly, 5 μl of enzyme (0.050–20 μM) in HEPES buffer (20 mM HEPES (pH 7.5), 100 mM NaCl, 5 mM KCl, 1 mM MgCl2) was added to 35 μl of substrate solution to initiate the reaction. […] The deacetylation products were derivatized with dansyl chloride at 50 °C for 2 hrs. The deacetylation products were detected by LC–MS using a Waters SQD equipped with an Acquity UPLC (Waters, Milford, MA, USA) and quantified by using the standard curves generated from the mass signals of the corresponding deacetylated polyamines and peptides. Inhibition of HDAC10 activity was measured by using 0.49 μM zHDAC10 with 192 μM N^8-acetylspermidine. Data were analysed by logistic regression for IC50 determination and the inhibition constant Ki was calculated based on the Cheng-Prusoff equation, Ki=IC50 / (1+[S]/KM)[45]. Assays were performed in triplicate at room temperature."}}}
{"protein": "B1", "values": [{"measurement": "Km", "setting": "[1]", "value": "160 ± 50", "unit": "µM"}, {"measurement": "kcat", "setting": "[1]", "value": "0.7 ± 0.1", "unit": "s⁻¹"}, {"measurement": "kcat/Km", "setting": "[1]", "value": "4200 ± 900", "unit": "M⁻¹ s⁻¹"}, {"measurement": "Km", "setting": "[2]", "value": "170 ± 40", "unit": "µM"}, {"measurement": "kcat", "setting": "[2]", "value": "0.21 ± 0.02", "unit": "s⁻¹"}, {"measurement": "kcat/Km", "setting": "[2]", "value": "1200 ± 200", "unit": "M⁻¹ s⁻¹"}, {"measurement": "Km", "setting": "[3]", "value": "180 ± 40", "unit": "µM"}, {"measurement": "kcat", "setting": "[3]", "value": "0.48 ± 0.08", "unit": "s⁻¹"}, {"measurement": "kcat/Km", "setting": "[3]", "value": "2700 ± 300", "unit": "M⁻¹ s⁻¹"}, {"measurement": "Km", "setting": "[4]", "value": "90 ± 30", "unit": "µM"}, {"measurement": "kcat", "setting": "[4]", "value": "0.37 ± 0.04", "unit": "s⁻¹"}, {"measurement": "kcat/Km", "setting": "[4]", "value": "3900 ± 300", "unit": "M⁻¹ s⁻¹"}, {"measurement": "Km", "setting": "[5]", "value": "130 ± 20", "unit": "µM"}, {"measurement": "kcat", "setting": "[5]", "value": "0.58 ± 0.03", "unit": "s⁻¹"}, {"measurement": "kcat/Km", "setting": "[5]", "value": "4600 ± 300", "unit": "M⁻¹ s⁻¹"}, {"measurement": "Km", "setting": "[6]", "value": "900 ± 200", "unit": "µM"}, {"measurement": "kcat", "setting": "[6]", "value": "0.06 ± 0.02", "unit": "s⁻¹"}, {"measurement": "kcat/Km", "setting": "[6]", "value": "60 ± 20", "unit": "M⁻¹ s⁻¹"}, {"measurement": "Km", "setting": "[7]", "value": "22 ± 4", "unit": "µM"}, {"measurement": "kcat", "setting": "[7]", "value": "0.00033 ± 2e-05", "unit": "s⁻¹"}, {"measurement": "kcat/Km", "setting": "[7]", "value": "15 ± 2", "unit": "M⁻¹ s⁻¹"}, {"measurement": "Km", "setting": "[8]", "value": "80 ± 10", "unit": "µM"}, {"measurement": "kcat", "setting": "[8]", "value": 0.013, "unit": "s⁻¹"}, {"measurement": "kcat/Km", "setting": "[8]", "value": 160, "unit": "M⁻¹ s⁻¹"}]}
